Consider 4 molecules from EP4484563A1.

What all share (experiment): cell-based or functional assay
One assay deals with T1, CD14 (UniProt P08571).
T1 sequence: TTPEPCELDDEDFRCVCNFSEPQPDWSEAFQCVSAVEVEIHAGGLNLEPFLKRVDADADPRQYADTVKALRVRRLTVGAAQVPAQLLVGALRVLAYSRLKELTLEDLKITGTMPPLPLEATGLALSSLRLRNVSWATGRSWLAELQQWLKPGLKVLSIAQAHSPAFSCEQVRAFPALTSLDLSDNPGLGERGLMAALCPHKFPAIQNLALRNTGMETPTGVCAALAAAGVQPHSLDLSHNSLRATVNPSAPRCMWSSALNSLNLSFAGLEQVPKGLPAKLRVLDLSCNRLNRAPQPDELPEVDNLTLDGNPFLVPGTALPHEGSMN

Another assay concerns the target human CD8a (human) (UniProt P01732).
Assay [1] deals with T cell receptor (TCRab) (human).

Sequence of UniProt P01732 (P01732 22-235): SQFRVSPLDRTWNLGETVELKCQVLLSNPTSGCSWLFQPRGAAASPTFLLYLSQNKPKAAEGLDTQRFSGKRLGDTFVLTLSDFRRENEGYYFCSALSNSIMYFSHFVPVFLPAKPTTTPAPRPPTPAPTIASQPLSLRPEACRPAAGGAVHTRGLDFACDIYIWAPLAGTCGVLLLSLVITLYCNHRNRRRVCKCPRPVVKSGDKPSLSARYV

B1: Nanobody (VHH) CD14 3RMB1 (VHH)
VHH: QVQLQESGGGLVQSGGSLRLSCAVSGSIFSIVDMGWYRQAPGKGRELVAELSDGSTNYADSVLGRFTISRDNAKNTVYLQMNSLKPEDTAVYYCNADLTGSSWSPYRYLEVWGQGTQVTVSS
As to B1, the percentage transduction of target negative cells (flow cytometry, 7-14 days) with CD14 was less than 1%.

B2: membrane anchored anti-CD14 scFv (scFv)
scFv: DDVQLQQSGPGLVKPSQSLSLTCTVTGYSITSDSAWNWIRQFPGNRLEWMGYISYSGSTSYNPSLKSRISITRDTSKNQFFLQLNSVTTEDTATYYCVRGLRFAYWGQGTLVTVSSGGGGSGGGGSGGGGSDIVLTQSPASLAVSLGQRATISCRASESVDSYVNSFLHWYQQKPGQPPKLLIYRASNLQSGIPARFSGSGSRTDFTLTINPVEADDVATYYCQQSNEDPYTFGGGTKLEIK
Molecule B2 registered a percentage transduction of primary monocytes versus non-stimulated PBMCs (GFP, flow cytometry, day 7) in the assay with CD14 of less than 2%.

B3: membrane anchored VHH targeting human CD8a (VHH)
VHH: EVQLVESGGGLVQPGGSLRLSCAASGFTFDDYVIGWFRQAPGKGREGVACIRIFDRHTYYADSVKGRFTISSDNSKNTVYLQMNSLRAEDTATYYCAAGSFFGCTRPEGDMDYFGQGTLVQVQS
The molecule B3 gave a percentage transduction of target negative cells (flow cytometry, day 7) with human CD8a (human) of less than 1%.

B4: TCRab VHH (VHH)
VHH: EVQLVESGGGLVQPGGSLRLSCAASGDVHKINILGWYRQAPAKEREMVAHITIGDATDYADSAKGRFTISRDEAKNMVYLQMNSLKPEDTAVYFCRAYSRIYPYNYWGQGTLVTVSS
The molecule B4 came in with a percentage transduction of target negative cells (flow cytometry, day 7) in assay [1] of less than 1%.
